Measurements: US20220089784A1 (University of California, published 2022)

T1: BoNT/B1 (Clostridium botulinum, UniProt P10844 2-1291)
T1 sequence: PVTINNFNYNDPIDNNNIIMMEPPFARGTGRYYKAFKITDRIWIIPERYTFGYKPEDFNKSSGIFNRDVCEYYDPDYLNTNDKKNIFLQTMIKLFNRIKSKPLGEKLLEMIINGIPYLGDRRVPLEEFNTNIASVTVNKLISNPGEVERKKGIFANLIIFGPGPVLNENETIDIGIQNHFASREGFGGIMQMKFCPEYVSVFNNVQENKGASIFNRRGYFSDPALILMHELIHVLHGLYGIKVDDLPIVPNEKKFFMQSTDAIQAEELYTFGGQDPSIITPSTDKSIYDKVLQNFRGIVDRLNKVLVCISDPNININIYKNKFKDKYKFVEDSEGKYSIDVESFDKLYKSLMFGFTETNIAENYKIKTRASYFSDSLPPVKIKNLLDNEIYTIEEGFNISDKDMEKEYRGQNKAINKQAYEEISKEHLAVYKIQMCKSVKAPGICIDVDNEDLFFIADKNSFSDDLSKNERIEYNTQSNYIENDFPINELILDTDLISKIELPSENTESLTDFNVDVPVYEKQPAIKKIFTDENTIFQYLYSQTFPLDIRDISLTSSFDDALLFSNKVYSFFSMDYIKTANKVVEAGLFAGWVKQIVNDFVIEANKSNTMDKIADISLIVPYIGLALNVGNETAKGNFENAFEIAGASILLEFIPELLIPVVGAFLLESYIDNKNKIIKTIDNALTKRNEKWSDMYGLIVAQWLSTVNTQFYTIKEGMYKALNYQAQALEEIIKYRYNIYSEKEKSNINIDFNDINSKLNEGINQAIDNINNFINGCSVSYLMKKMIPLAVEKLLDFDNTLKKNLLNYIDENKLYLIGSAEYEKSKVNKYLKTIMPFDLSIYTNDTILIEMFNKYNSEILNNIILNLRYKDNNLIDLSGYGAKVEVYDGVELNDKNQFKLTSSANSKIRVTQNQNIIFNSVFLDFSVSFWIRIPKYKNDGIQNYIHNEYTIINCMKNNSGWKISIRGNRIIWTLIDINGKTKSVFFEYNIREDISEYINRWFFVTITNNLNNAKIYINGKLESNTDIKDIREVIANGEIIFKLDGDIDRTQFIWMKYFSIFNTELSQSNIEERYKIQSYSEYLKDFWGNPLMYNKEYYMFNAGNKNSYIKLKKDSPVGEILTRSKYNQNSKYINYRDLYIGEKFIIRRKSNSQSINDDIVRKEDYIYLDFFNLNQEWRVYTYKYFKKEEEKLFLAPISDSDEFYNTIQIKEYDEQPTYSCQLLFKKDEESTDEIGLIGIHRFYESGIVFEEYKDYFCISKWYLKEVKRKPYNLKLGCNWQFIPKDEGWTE

T2: BoNT/B light chain (recombinant) (Clostridium botulinum, UniProt P10844 1-441)
T2 sequence: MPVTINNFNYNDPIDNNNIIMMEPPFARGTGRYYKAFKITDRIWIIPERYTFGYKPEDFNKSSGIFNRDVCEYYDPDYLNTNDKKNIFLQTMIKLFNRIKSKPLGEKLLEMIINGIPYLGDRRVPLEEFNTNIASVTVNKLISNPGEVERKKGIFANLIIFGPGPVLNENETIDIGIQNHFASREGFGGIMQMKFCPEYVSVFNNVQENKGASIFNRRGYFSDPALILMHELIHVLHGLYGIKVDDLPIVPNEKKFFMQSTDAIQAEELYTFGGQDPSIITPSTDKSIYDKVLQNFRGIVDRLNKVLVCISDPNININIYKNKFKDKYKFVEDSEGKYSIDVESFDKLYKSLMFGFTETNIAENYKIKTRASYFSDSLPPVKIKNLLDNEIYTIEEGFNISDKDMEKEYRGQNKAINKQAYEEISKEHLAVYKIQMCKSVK

T3: BoNT/F1 (proteolytic BoNT/F) (Clostridium botulinum, UniProt A7GBG3 1-1278)
T3 sequence: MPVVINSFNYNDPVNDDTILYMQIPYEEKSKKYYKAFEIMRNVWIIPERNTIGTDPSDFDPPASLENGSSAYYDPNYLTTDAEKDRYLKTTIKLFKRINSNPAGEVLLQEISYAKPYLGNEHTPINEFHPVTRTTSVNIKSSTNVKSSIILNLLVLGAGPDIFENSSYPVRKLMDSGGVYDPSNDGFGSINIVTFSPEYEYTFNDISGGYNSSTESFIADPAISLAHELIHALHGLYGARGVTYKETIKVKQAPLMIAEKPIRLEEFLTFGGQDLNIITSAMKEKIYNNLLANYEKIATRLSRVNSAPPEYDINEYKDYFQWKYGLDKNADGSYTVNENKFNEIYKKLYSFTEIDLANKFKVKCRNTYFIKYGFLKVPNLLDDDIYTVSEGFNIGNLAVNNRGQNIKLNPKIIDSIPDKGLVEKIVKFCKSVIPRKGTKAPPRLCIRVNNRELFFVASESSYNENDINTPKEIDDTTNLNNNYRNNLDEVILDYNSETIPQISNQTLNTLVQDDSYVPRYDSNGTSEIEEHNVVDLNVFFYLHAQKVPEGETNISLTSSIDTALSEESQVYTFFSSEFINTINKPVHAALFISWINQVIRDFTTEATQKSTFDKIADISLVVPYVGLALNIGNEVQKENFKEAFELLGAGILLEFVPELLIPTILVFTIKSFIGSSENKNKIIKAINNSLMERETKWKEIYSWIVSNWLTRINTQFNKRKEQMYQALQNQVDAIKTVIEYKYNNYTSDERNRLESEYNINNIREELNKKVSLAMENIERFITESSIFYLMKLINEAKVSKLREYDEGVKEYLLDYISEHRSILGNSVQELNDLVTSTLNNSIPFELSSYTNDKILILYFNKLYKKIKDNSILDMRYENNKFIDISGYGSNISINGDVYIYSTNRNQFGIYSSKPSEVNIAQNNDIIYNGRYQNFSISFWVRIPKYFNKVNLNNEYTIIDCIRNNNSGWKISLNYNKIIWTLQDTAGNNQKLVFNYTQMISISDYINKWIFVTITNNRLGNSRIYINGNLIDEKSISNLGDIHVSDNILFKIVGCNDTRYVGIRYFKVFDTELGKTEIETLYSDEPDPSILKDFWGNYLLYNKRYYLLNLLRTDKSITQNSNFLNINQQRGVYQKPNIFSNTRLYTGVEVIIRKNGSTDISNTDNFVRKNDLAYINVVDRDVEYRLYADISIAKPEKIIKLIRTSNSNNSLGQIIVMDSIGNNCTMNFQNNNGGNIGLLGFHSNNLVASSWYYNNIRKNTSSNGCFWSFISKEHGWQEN

B1: 16D5 scFv (scFv)
scFv: EVKLVESGAELVRPGASVKLSCTPSGFNIKDDYMHWVKQRPEQGLEWIGRIDPANGNTRYAPKFQDKATLTADTSSNTAYLHLTSLTSEDTAVYYCARSYYRAWFDYWGQGTLVTVSSVDLKSGGSTSGSGKPGSGEGSSGSARQIVLTQSPATLSVTPGDSVSLSCRASQSISNNLHWYQQKSHESPRLLIKYASQSISGIPSRFSGSGSGTDFTLSINSVETEDFGMYFCQQSNSWPLTFGAGTRLEIK
notes: mouse
B2: 19B6 scFv (scFv)
scFv: QVQLQQSGAELVKPGASVKISCKASGYTFTDNYINWVKQRPGQGLEWIGWIHPGSGNAKYNEKFRAKATLTVDTSSNTAYMQLSSLTSEDSAVYFCARVGFRVNFDYWGQGTTLTVSSVDLKSGGSTSGSGKPGSGEGSSGSARQIVLTQSPAIMSASPGEKVTMTCSASSSLSYVHWYQQKPGSSPKPWIYATSNLVSGVPARFSGSRSGTSYSLTISSMEAEDAATYYCQQWSSYPPTFGAGTKLEIK
notes: mouse
B3: 6F6 IgG (antibody, V domains shown)
VH: EVQLLESGGGLVKPGGSRKLSCEASGFTFSDYGMHWVRQAPEKGLEWVGYISSGSRIIYYADTVKGRITISRDNAKNTLFLQMTSLRSEDTAMYYCVRGTWVFDYWGQGTTLTVSS
VL: DIVMTQSPASLAVSLGQRATISCRASESVDNYGISFMNWFQQKPGQPPKLLIYAASNLESGIPARFSGSGSGTDFTLTINPVEADDVATYYCQQSNEDPYTFGGGTKLEIK
notes: IgG from scFv V genes
B4: 18A6 scFv (scFv)
scFv: EVQLQQSGPELVKPGASVKISCKASGYTFTDNYINWVKQRPGQGLEWIGWIYPGSGNTKYNEKFKGKATLTVDTSSNTAYMQLTGLASDDSAVYFCARVNFYVSWDYWGQGTSVTVSSVDLKSGGSTSGSGKPGSGEGSSGSAREIVLTQSPAIMSASPGEKVTMTCSASSSISYMHWFQQKPGMSPKRRIFDTSKLASGVPARFSGSGSGTSYSLTISSMEAEDAGTYYCHQRSSYPFTFGGGTKLELK
notes: mouse
B5: 6F7 IgG (antibody, V domains shown)
VH: QVQLQESGPGLVKPSQTVSLTCTVAGYSITNGNHWWNWIRQVSGSKLEWIGYITSSGSTDSNPSLKSRISITRDTSKNQLFLQLNSVTTEDIATYYCARSSNYFFHVLDYWGQGTSVTVSS
VL: DIVLTQTPAIMSASPGEKVTMTCSASSSVSYMHWFQQKPGTSPKLWIYSTSNLASGVPARFSGSGSGTSYSLTISRMEAEDAATYYCQQRSSYPPTFGGGTRLEIK
notes: IgG from scFv V genes
B6: 18E5 scFv (scFv)
scFv: EVQLQESGPELVKPGASVKISCKASGYTFTDHNMDWVKQSLGKSLEWIGDINPNNGGAVYNQNFKGKATLTVDKSSSTAYMELRSLTSEDTAVYYCARYGYYGYFDYWGQGTTLTVSSVDLKSGGSTSGSGKPGSGEGSSGSARQIVLTQSPAIMSASPGEKVTMTCRASSSVSSSYLHWYQQKPGSSPKLWIYSTSNLASGVPARFSGSGSGTSYSLTISSVEAEDAATYYCQQYDSSPSTFGAGTKLEIK
notes: mouse
B7: 18D10 scFv (scFv)
scFv: QVQLKQSGIEVMKPGASVKLSCKASGYPFTAYWIEWVKQRPGHGLEWIGEFLPGGISTNFNEKFKGKATFSADTSSNSAYIQLNSLTTEDSAIYYCVLTGTGFDYWGQGTSVTVSSVDLKSGGSTSGSGKPGSGEGSSGSARENVLTQSPAIMSASPGEKVTMTCSASSSVSYMHWYQQKSGTSPKRWIYDTSKLASGVPARFSGSGSGTSYSLTISSMEAEDAATYYCQQWSSNPLTFGAGTKLELK
notes: mouse
B8: 6F3 IgG (antibody, V domains shown)
VH: QVQLQQSGPEVVKPGASVKISCKASGYTFADYWIGWTKQGPGHGLEWIGHIYPGGGYINYNEKFKGKATLTADMSSSTAYMQFSSLTSEDSAIYYCARVTMVESGDWYFDVWGTGTTVTVSS
VL: ENVLTQSPAIMSASLGEEITLTCSASSSVSYMHWYQQKSGTSPKLWIYYTSNLASGVPARFSGSGSGTSYSLTISSMEAEDAATYYCQQWSSNPYTFGGGTKLEIK
notes: IgG from scFv V genes
B9: 16B3 scFv (scFv)
scFv: EVQLQQSGPELVKPGASVKITCKASGYTFTDNNMDWVKQSHGKSLEWIGDINPNNGGSIYNQKFKGKASLTLDKSSSTAYMELRSLTSEDTAVYYCARWGYYGSLAYWGQGTLVTVSSVDLKSGGSTSGSGKPGSGEGSSGSARQNVLTQSPAIMSASPGEKVTMTCSASSSVSSRYLHWYQQKSGASPKLWIYGTSNLASGVPARFSGSGSGTSYSLTISSVEAEDAATYYCQQYHSDPLTFGGGTKLEIK
notes: mouse
B10: 6F5 IgG (antibody, V domains shown)
VH: EVQLVQSGGNLVQPGGSLRLSCAATGPIGSHWMTWVRQAPGQGLEWVANINLDGTEKFYVDSVKGRFTVSRDNRKSSVFLQMNNLRVDDTAVYYCARLQWGGYNGWLSPWGQGTLVTVSS
VL: DIEMTQSPPSLSASVGDRVSLTCRASEYIGTSLNWYQQKPGKAPKLLIYAASALHSGVPSRFSGSGSGTDFTLTISGLQPEDFATYYCQQANDLPLTFGGGTKLEIK
B11: 6F4 IgG (antibody, V domains shown)
VH: EVQLQESGPELVKPGASVKISCKTSGYTFTDYYMNWVKQSHGKSLEWIGDINPNNGGATYNQKFKGKATLTVDKSSRTLYMELRSLTSEDSAVYHCACGPYFFDFWGQGTTLTVSS
VL: QIVLTQSPATMSASPGEKVTITCSASSSVNYMHWYQQKPGSSPKLWIYDTSSLAPGVPARFSGSGSGTSYSLTISSMEAEDAASYFCHQWSSYPYTFGGGTKLEIK
notes: IgG from scFv V genes

Tests used:
BoNT/B1 = biological target: T1, BoNT/B1; test: yeast scFv FACS
[1] = biological target: T2, BoNT/B light chain (recombinant); test: yeast scFv FACS
[2] = biological target: T3, BoNT/F1 (proteolytic BoNT/F); test: IgG

| Binder | Kd (BoNT/B1) [nM] | Kd [1] [nM] | Kd [2] [nM] |
| --- | --- | --- | --- |
| B1 | 7.57 | 1.8 |  |
| B2 | 19.7 | 2.35 |  |
| B3 |  |  | 0.048 |
| B4 | 14.5 | 4.21 |  |
| B5 |  |  | 0.57 |
| B6 | 1.33 | 1 |  |
| B7 | 5.97 | 7.53 |  |
| B8 |  |  | 2.39 |
| B9 | 1.01 | 0.84 |  |
| B10 |  |  | 0.66 |
| B11 |  |  | 1.17 |
